Results as given in patent US20250003966.

Tested on: substrate protein (Seq Id no. 1) (URSCREENSARS-COV-2)

trypsin
cleavage bands on 15% SDS-PAGE (Sypro Ruby stain): We could clearly see the cleavage bands of expected molecular weight after gel staining
